The values below come from patent US20150010525A1, “Catalytic Tagging System to Study Macro-Molecular Interactions Using Engineered Ubiquitin Ligase and Ubiquitin-Like Proteins to Facilitate Substrate Identification” (THE REGENTS OF THE UNIVERSITY OF CALIFORNIA, priority 2012, published 2015).

For one assay, the target named is T1, XIAP (Homo sapiens, UniProt P61081+P98170).
T1 construct: The N-terminus (residues 1-434) of XIAP was then fused via a flexible Gly-Gly-Ser-Gly linker to the NEDD8 E2, Ubc12; GST (N, cleaved yes); made in house; host or cells: E. coli BL21 (DE3)
T1 sequence (P98170+P61081 fused): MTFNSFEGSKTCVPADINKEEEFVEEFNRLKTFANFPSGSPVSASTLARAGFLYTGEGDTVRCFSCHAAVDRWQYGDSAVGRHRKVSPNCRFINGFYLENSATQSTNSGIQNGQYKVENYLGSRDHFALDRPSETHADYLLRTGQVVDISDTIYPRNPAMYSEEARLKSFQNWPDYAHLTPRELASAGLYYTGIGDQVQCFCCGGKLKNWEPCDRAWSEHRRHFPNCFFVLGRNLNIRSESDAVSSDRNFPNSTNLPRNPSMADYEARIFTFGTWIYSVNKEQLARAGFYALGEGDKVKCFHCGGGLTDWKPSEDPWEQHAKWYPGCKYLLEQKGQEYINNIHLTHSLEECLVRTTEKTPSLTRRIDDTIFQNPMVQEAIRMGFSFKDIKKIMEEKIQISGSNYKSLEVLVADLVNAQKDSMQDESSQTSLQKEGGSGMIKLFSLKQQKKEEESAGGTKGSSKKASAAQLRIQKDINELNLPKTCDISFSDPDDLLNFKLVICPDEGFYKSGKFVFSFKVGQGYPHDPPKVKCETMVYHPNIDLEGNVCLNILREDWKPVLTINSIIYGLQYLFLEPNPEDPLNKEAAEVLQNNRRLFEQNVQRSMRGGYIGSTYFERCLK
Briefly: SILAC mass spectrometry screen for XIAP substrates with NEDDylator^XIAP in apoptotic Jurkat cell lysate. Type of assay: biochemical. Conditions: Heavy lysate with Ubc12. As for the experimental part:
Jurkat cells were grown in media containing either light or heavy isotopes of lysine and arginine and induced to undergo apoptosis with STS. Light cell extracts were incubated with the respective catalytic tagging system for each of the two IAPs and the heavy extracts labeled only with the wild-type NEDD8 E2, Ubc12. 64 mg regular L-Lys and 83.6 mg L-Arg.HCl were added to 1 liter RPMI-1640 minus L-Lys and L-Arg (Thermo/Pierce), 10% fetal bovine serum (FBS) to generate “Light” medium. 100 mg ^13C6^15N2 L-Lys.2HCl and 86 mg ^13C6 L-Arg.HCl (Cambridge Isotope) were added to the same amount of medium to generate the “Heavy” medium. Jurkat cells were cultured separately in “Light” or “Heavy” medium for 7 days to allow for thorough isotope incorporation. For IAP substrate identification, 400 million cells were treated with 2 μM STS for 4 hours, harvested, lysed in M-PER mammalian protein extraction buffer (Thermo/Pierce) in the presence of protease inhibitors (100× ProteoBlock cocktail, Fermentas) and mixed with cell lysate prepared from 400 million untreated cells. The NEDDylated proteins were isolated under denaturing conditions via the HB-NEDD8 tag using a tandem affinity pull down procedure (Tagwerker et al., Mol Cell Proteomics 5:737-748 (2006)) (FIG. 11). Purified NEDDylated proteins were trypsinized and analyzed with tandem mass spectrometry (LC-MS/MS).
(§1) For SILAC experiments, Jurkat cells were cultured separately in “Light” (supplemented with regular Lys and Arg) or “Heavy” (supplemented with ^13C6^15N2 Lys and ^13C6 Arg) medium for 7 days to allow for thorough isotope incorporation. Apoptotic “Light” and “Heavy” cell extracts were prepared individually. The lysates were cleared by spinning and then diluted in 50 mM HEPES pH 7.4, 150 mM NaCl to 5 mg/ml and supplemented with 5 mM ATP, 10 mM MgCl2. Endogenous NEDD8 E1 is cell lysate was used to catalyze the reaction. HB-NEDD8 was added to both lysate at mass ratio 1:500; the catalytic tagging system was added to the “Light” lysate at mass ratio 1:1000. Equal molar of Ubc12 was added to the “Heavy” lysate. […] NEDDylated proteins were separated by one-dimensional SDS-PAGE, and trypsinized for LC-MS/MS analysis.
For liquid chromatography—Tandem mass spectrometry (LC-MS/MS) analysis, the tryptic peptides were first desalted and concentrated with a C18 Ziptip (Millipore). LC-MS/MS was carried out by reverse phase LC interfaced with a LTQ-Orbitrap (ThermoFisher Scientific) hybrid mass spectrometer. A nanoflow HPLC (NanoAcquity UPLC system, Waters Corporation) was equipped with a trap column (180 μm×20 mm, 5 μm SymmetryC18, from Waters) and an analytical column (100 μm×100 mm, 1.7 μm BEH130C18, from Waters). […]

A further assay has as its target T2, cIAP1 (Homo sapiens, UniProt P61081+Q13490).
T2 construct: cIAP1(ΔR) (residues 1-555); GST (N, cleaved yes); made in house; host or cells: E. coli BL21 (DE3)
Nature of the assay: SILAC mass spectrometry screen for cIAP1 substrates with NEDDylator^cIAP1 in apoptotic Jurkat cell lysate. In kind it is biochemical. Conditions: Light lysate with NEDDylator^cIAP1, Heavy lysate with Ubc12. The protocol: Jurkat cells were grown in media containing either light or heavy isotopes of lysine and arginine and induced to undergo apoptosis with STS. Light cell extracts were incubated with the respective catalytic tagging system for each of the two IAPs and the heavy extracts labeled only with the wild-type NEDD8 E2, Ubc12. […] 100 mg ^13C6^15N2 L-Lys.2HCl and 86 mg ^13C6 L-Arg.HCl (Cambridge Isotope) were added to the same amount of medium to generate the “Heavy” medium. Jurkat cells were cultured separately in “Light” or “Heavy” medium for 7 days to allow for thorough isotope incorporation. For IAP substrate identification, 400 million cells were treated with 2 μM STS for 4 hours, harvested, lysed in M-PER mammalian protein extraction buffer (Thermo/Pierce) in the presence of protease inhibitors (100× ProteoBlock cocktail, Fermentas) and mixed with cell lysate prepared from 400 million untreated cells. […] Purified NEDDylated proteins were trypsinized and analyzed with tandem mass spectrometry (LC-MS/MS).
as §1
For liquid chromatography—Tandem mass spectrometry (LC-MS/MS) analysis, the tryptic peptides were first desalted and concentrated with a C18 Ziptip (Millipore). LC-MS/MS was carried out by reverse phase LC interfaced with a LTQ-Orbitrap (ThermoFisher Scientific) hybrid mass spectrometer. A nanoflow HPLC (NanoAcquity UPLC system, Waters Corporation) was equipped with a trap column (180 μm×20 mm, 5 μm SymmetryC18, from Waters) and an analytical column (100 μm×100 mm, 1.7 μm BEH130C18, from Waters). Peptides were eluted over a linear gradient from 2% solvent A (0.1% formic acid in water) to 35% solvent B (0.1% formic acid in acetonitrile) at 350 nL/min over 35 min. MS and MS/MS spectra were acquired in a data-dependent mode with MS spectra acquired in the Orbitrap at 30,000 resolving power and 6 CID MS/MS spectra acquired per MS in the LTQ linear ion trap. Dynamic exclusion was set at 90 seconds to prevent repeated MS/MS on the same precursor ion.
The identified peptides were searched against a random decoy protein database for evaluating the false positive rates. […] The decoy peptides were removed from the data. Protein IDs were assigned only when at least two unique peptides were identified from the same protein. For SILAC experiment, Light/Heavy ratios for the identified peptides were calculated, using ProteinProspector. The media Light/Heavy ratios of all the peptides identified for each protein were used to represent the Light/Heavy ratio of the protein.

T2 sequence (Q13490+P61081 fused): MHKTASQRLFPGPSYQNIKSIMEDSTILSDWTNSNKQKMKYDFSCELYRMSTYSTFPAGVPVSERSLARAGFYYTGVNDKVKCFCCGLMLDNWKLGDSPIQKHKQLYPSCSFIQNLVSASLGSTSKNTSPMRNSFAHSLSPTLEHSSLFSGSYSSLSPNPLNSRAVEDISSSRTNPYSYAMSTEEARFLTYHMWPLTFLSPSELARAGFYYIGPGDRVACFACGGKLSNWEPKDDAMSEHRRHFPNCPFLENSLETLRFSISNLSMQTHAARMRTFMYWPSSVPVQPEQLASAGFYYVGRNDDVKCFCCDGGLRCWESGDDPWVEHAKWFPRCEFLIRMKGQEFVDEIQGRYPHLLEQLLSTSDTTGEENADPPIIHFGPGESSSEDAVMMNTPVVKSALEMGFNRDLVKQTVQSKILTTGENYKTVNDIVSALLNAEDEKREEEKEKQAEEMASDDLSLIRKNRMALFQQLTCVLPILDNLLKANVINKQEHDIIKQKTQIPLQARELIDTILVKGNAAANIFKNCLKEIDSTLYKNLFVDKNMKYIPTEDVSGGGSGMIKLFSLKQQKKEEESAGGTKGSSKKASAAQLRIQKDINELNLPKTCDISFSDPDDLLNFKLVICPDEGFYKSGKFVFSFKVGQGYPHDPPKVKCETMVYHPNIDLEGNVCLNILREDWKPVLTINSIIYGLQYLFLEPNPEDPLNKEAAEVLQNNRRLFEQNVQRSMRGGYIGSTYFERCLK

B1: Pre-mRNA-splicing factor SPF27: potential XIAP substrate (protein, UniProt O75934 2-225, looked up)
Pre-mRNA-splicing factor SPF27: AGTGLVAGEVVVDALPYFDQGYEAPGVREAAAALVEEETRRYRPTKNYLSYLTAPDYSAFETDIMRNEFERLAARQPIELLSMKRYELPAPSSGQKNDITAWQECVNNSMAQLEHQAVRIENLELMSQHGCNAWKVYNENLVHMIEHAQKELQKLRKHIQDLNWQRKNMQLTAGSKLREMESNWVSLVSKNYEIERTIVQLENEIYQIKQQHGEANKENIRQDF
B1: the “L/H (Light/Heavy ratio)” value in the assay with XIAP worked out at 4.35.

B2: Serine protease HtrA2, mitochondrial: known IAP substrate (protein, UniProt O43464 134-458, looked up)
Serine protease HTRA2, …: AVPSPPPASPRSQYNFIADVVEKTAPAVVYIEILDRHPFLGREVPISNGSGFVVAADGLIVTNAHVVADRRRVRVRLLSGDTYEAVVTAVDPVADIATLRIQTKEPLPTLPLGRSADVRQGEFVVAMGSPFALQNTITSGIVSSAQRPARDLGLPQTNVEYIQTDAAIDFGNSGGPLVNLDGEVIGVNTMKVTAGISFAIPSDRLREFLHRGEKKNSSSGISGSQRRYIGVMMLTLSPSILAELQLREPSFPDVQHGVLIHKVILGSPAHRAGLRPGDVILAIGEQMVQNAEDVYEAVRTQSQLAVQIRRGRETLTLYVTPEVTE
For B2, the “L/H (Light/Heavy ratio)” value in the assay with cIAP1 was 39.2; with XIAP it was 21.4.

B3: 3-hydroxyacyl-CoA dehydrogenase type-2: potential cIAP1 substrate (protein, UniProt Q99714 2-261, looked up)
3-hydroxyacyl-CoA …: AAACRSVKGLVAVITGGASGLGLATAERLVGQGASAVLLDLPNSGGEAQAKKLGNNCVFAPADVTSEKDVQTALALAKGKFGRVDVAVNCAGIAVASKTYNLKKGQTHTLEDFQRVLDVNLMGTFNVIRLVAGEMGQNEPDQGGQRGVIINTASVAAFEGQVGQAAYSASKGGIVGMTLPIARDLAPIGIRVMTIAPGLFGTPLLTSLPEKVCNFLASQVPFPSRLGDPAEYAHLVQAIIENPFLNGEVIRLDGAIRMQP
As for B3, in the assay with cIAP1, the “L/H (Light/Heavy ratio)” value turned out to be 4.1.

B4: Malate dehydrogenase, mitochondrial: potential cIAP1 substrate (protein, UniProt P40926 25-338, looked up)
Malate dehydrogenase, …: AKVAVLGASGGIGQPLSLLLKNSPLVSRLTLYDIAHTPGVAADLSHIETKAAVKGYLGPEQLPDCLKGCDVVVIPAGVPRKPGMTRDDLFNTNATIVATLTAACAQHCPEAMICVIANPVNSTIPITAEVFKKHGVYNPNKIFGVTTLDIVRANTFVAELKGLDPARVNVPVIGGHAGKTIIPLISQCTPKVDFPQDQLTALTGRIQEAGTEVVKAKAGAGSATLSMAYAGARFVFSLVDAMNGKEGVVECSFVKSQETECTYFSTPLLLGKKGIEKNLGIGKVSSFEEKMISDAIPELKASIKKGEDFVKTLK
Regarding B4, the “L/H (Light/Heavy ratio)” value with cIAP1 was 4.35.

B5: SMAC/Diablo homolog, mitochondrial: known IAP substrate (protein, UniProt Q9NR28 22-239, looked up)
Diablo IAP-binding …: LCVPVVANFKKRCFSELIRPWHKTVTIGFGVTLCAVPIAQKSEPHSLSSEALMRRAVSLVTDSTSTFLSQTTYALIEAITEYTKAVYTLTSLYRQYTSLLGKMNSEEEDEVWQVIIGARAEMTSKHQEYLKLETTWMTAVGLSEMAAEAAYQTGADQASITARNHIQLVKLQVEEVHQLSRKAETKLAEAQIEELRQKTQEEGEERAESEQEAYLRED
Take B5: the “L/H (Light/Heavy ratio)” value with cIAP1 was found to be 53.4; with XIAP it was 7.39.
